From patent US20260184811A1 (CEREIUS, published 2026)
Residue numbers refer to the chain shown, from its start. Where two headings read alike, the source gives them in different places.

Key:
[1] = target: T1, human HER2 receptor (human, UniProt P04626); experiment: ELISA on human HER2 receptor, purified VHH titrated, A450
[2] = target: T1, human HER2 receptor; experiment: as above; remark: listed apart in the source
[3] = target: T1, human HER2 receptor; experiment: as above; remark: listed apart in the source
[4] = target: T1, human HER2 receptor; experiment: ELISA specificity panel on ErbB family receptors, VHH titrated, A450
[5] = target: T1, human HER2 receptor; experiment: as above; remark: listed apart in the source
[6] = target: T1, human HER2 receptor; experiment: as above; remark: listed apart in the source
[7] = target: T1, human HER2 receptor; experiment: ELISA on human HER2 receptor, purified VHH titrated, A450; remark: listed apart in the source
[8] = target: T1, human HER2 receptor; experiment: as above; remark: listed apart in the source
[9] = target: T1, human HER2 receptor; experiment: as above; remark: listed apart in the source
[10] = target: T1, human HER2 receptor; experiment: as above; remark: listed apart in the source
[11] = target: T1, human HER2 receptor; experiment: as above; remark: listed apart in the source

B1: VHH_118 (VHH)
VHH: EVQLVESGGGLVQPGGSLRLSCAASEFTFSNYAMSWVRQAPGKGLEWVSAINWSGGITTYADSVKGRFTISRDNAKNTLHLQMNSLKPEDTAVYYCAKGWGTTTRDTGLLSQGTLVTVSS
notes: also called VHH ID 118
B1 was tested, and the “EC50 (read off the curve)” value [1] was ~6 nM.

B2: VHH_109 (VHH)
VHH: QVQLVESGGGLVQPGGSLRLSCEASGFTFDDYGMSWVRQAPGKGLEWVSGITWNGGNPNYADSVKGRFTISRDNAKRTLYLQMNSLKAEDTAVYYCQRGYSRGYMYWGQGTQVTVSS
notes: also called VHH ID 109
In the case of B2, the “EC50 (read off the curve)” value [2] is reported as ~10 nM.

B3: VHH_108 (VHH)
VHH: QVQLVESGGGLVQAGGSLRLSCAASGRTFSSYAMGWFRQAPGLEREFVAAIARGGVSTGYADSVKGRFAISRDNAKNMVYLQMNSLKPEDTAVYYCATYFWGSPHYWGQGTQVTVSS
notes: also called VHH ID 108
For B3, the “EC50 (read off the curve)” value [3] was ~6 nM.

B4: VHH_130 (VHH)
VHH: EVQLVESGGGLVQAGGSLRLSCAASGITFSINTMGWYRQAPGKQRELVALISSIGDTYYADSVRGRFTISRDNAKNTVYLQMNSLKPEDTAVYYCRRFRTAAQGTDYWGQGTQVTVSS
notes: also called VHH ID 130
For B4, the “EC50 (read off the curve)” value [4] was ~1 nM, the “EC50 (read off the curve)” value [5] was ~1 nM and the “EC50 (read off the curve)” value [6] was ~1 nM.

B5: VHH_134 (VHH)
VHH: B4 VHH with K75R, K86R
notes: also called VHH ID 134
With B5 the “EC50 (read off the curve)” value [7] was ~1 nM.

B6: VHH_129 (VHH)
VHH: B4 VHH with R64K
notes: also called VHH ID 129
For B6, the “EC50 (read off the curve)” value [8] was ~1 nM.

B7: VHH_110 (VHH)
VHH: QVQLVESGGGSVQLGGSLRLSCAVSGLGFSALAMGWFRQAPGKERERVAAISRTGGTTYYTDSVKGRFTISRDNGKNMVYLQMNSLKPEDAAVYYCASRYTALLSTTARGYDYWGQGTQVTVSS
notes: also called VHH ID 110
B7: no binding [9].

B8: VHH_123 (VHH)
VHH: QVQLVESGGGLVQAGGSLRLSCAASGRTFNSYFYTMAWFRQAPGKEREFVARMNWNADSTYHADSVKGRFTISRENTVYLQMNSLEPEDTAVYYCAAKSISAPKYDYWGQGTQVTVSS
notes: also called VHH ID 123
B8: no binding [10].

B9: VHH_107 (VHH)
VHH: QVQLVESGGGLVQPGGSLRLSCAASGSIFSINVMGWYRQAPGMQRQLVAIITSGGSTNYADSVKGRFTVSRDNAKNTLYLRMNSLKPEDTAVYYCATIHVRESTWYYAYWGQGTQVTVSS
notes: also called VHH ID 107
For B9, the “EC50 (read off the curve)” value [11] was ~3 nM.
